Here are results for nine sequences from the Immune Epitope Database (IEDB).

One test deals with HLA-B*83:01. The test is described as follows: IEDB peptide-MHC binding, purified MHC/competitive/fluorescence; filed as Kd, often an IC50 or EC50 that approximates it; ≥ and ≤ were set here for values at or beyond the usual limits of such assays.
The target of a further test is HLA-C*04:01. The description is as above.
A further test concerns the target HLA-B*45:06. The description is as above.
Another test concerns the target HLA-B*15:42. Described as above.
In another test the target is HLA-A*02:16. The description is as above. The following applies: source organism: Entamoeba histolytica HM-1:IMSS.
Test [1] deals with HLA-A*02:01. The description is as above.
In test [2] the target is HLA-A*01:01. The test is described as follows: IEDB peptide-MHC binding, purified MHC/direct/fluorescence; filed as Kd, often an IC50 or EC50 that approximates it; ≥ and ≤ were set here for values at or beyond the usual limits of such assays.
The target in a further test is HLA-B*58:01. The test is described as above.
For the next test, the target named is HLA-B*07:02. The test is described as above. The following applies: source organism: Yellow fever virus.
The next test has as its target HLA-A*69:01. The description is as above.
Another test has as its target HLA-B*44:02. The test is described as above. The settings on record: source organism: Yellow fever virus.
The target of a further test is HLA-B*48:01. Described as above.
The target in the next test is HLA-B*46:01. Described as above.
A further test addresses HLA-B*57:01. Described as above.
Another test deals with HLA-B*27:05. The test is described as above.
A further test deals with HLA-B*40:01. Described as above.
The target of the next test is HLA-A*11:01. The test is described as above.
The next test has as its target HLA-B*18:01. The test is described as above.
In another test the target is HLA-B*15:01. The description is as above.
The next test has as its target HLA-B*08:02. The description is as above.
A further test has as its target HLA-A*03:01. The description is as above.
In test [3] the target is HLA-A*02:01. The test is described as above.
Another test concerns the target HLA-A*31:01. Described as above.
Test [4] addresses HLA-A*02:12. The test is described as follows: IEDB peptide-MHC binding, purified MHC/competitive/fluorescence; filed as Kd, often an IC50 or EC50 that approximates it; ≥ and ≤ were set here for values at or beyond the usual limits of such assays. The settings on record: source organism: Giardia lamblia ATCC 50803.
For test [5], the target named is HLA-A*01:01. The test is described as above. The settings on record: source organism: Mycobacterium tuberculosis variant bovis BCG str. Pasteur 1173P2.
The next test has as its target HLA-A*26:01. Nature of the test: IEDB peptide-MHC binding, purified MHC/direct/fluorescence; filed as Kd, often an IC50 or EC50 that approximates it; ≥ and ≤ were set here for values at or beyond the usual limits of such assays. The following applies: source organism: Mycobacterium tuberculosis str. Haarlem.
A further test addresses HLA-B*51:01. The test is described as above.
The target in another test is HLA-B*15:17. Described as above.
Another test deals with HLA-B*15:09. Described as above. The following applies: source organism: Mycobacterium tuberculosis str. Haarlem.
Another test deals with HLA-C*05:01. Described as above. The settings on record: source organism: Rattus norvegicus.
Test [6] has as its target HLA-A*02:12. The test is described as above. The following applies: source organism: Mycobacterium tuberculosis str. Haarlem.
For the next test, the target named is HLA-A*02:11. Described as above. The settings on record: source organism: Mycobacterium tuberculosis str. Haarlem.
Another test deals with HLA-B*39:01. The test is described as above. The following applies: source organism: Mycobacterium tuberculosis str. Haarlem.
The mark [7] stands for this setting: source organism: Mycobacterium tuberculosis C.
[8] abbreviates: source organism: Yellow fever virus.
Where [9] appears, read: source organism: West Nile virus.
Setting [10] is: source organism: Mycobacterium tuberculosis.
[11] abbreviates: source organism: Burkholderia mallei.

As a reminder, the Kd is the constant that tells how readily two partners part at equilibrium. The low end stands for higher affinity, the high end for lower affinity. As for RLYELIGSV, the Kd with HLA-B*83:01 (setting [7]) is not below 5 µM; with HLA-C*04:01 (setting [7]), not below 5000 nM; with HLA-B*45:06 (setting [7]) it was not below 5 µM; with HLA-B*15:42 (setting [7]), not below 5 µM.
On to FHFNPLPNV, for which the Kd with HLA-A*02:16 came out at 129 nM; with HLA-A*02:01 [1] (source organism: Entamoeba histolytica HM-1:IMSS) it was 115 nM.
For the sequence YFHKRDMRL, the Kd with HLA-A*01:01 [2] (setting [8]), with HLA-B*58:01 (setting [8]), in the test with HLA-B*07:02, with HLA-A*69:01 (setting [8]), with HLA-B*44:02 and in the test with HLA-B*48:01 (setting [8]) was not below 20 µM in each case. Besides, the Kd in the test with HLA-B*46:01 (setting [8]), with HLA-B*57:01 (setting [8]), with HLA-B*27:05 (setting [8]), in the test with HLA-B*40:01 (setting [8]), with HLA-A*11:01 (setting [8]) and with HLA-B*18:01 (setting [8]) was not below 20 µM in each case. Further, the Kd with HLA-B*15:01 (setting [8]) is not below 20 µM; with HLA-B*08:02 (setting [8]), 4.63 µM; with HLA-A*03:01 (setting [8]) it was not below 20 µM.
Turning to EVRLATMLF, the Kd in the test with HLA-A*01:01 [2] (setting [8]), with HLA-B*58:01 (setting [8]), with HLA-B*44:02, with HLA-B*48:01 (setting [8]), with HLA-B*46:01 (setting [8]) and in the test with HLA-B*57:01 (setting [8]) was not below 20 µM each time. Moreover, the Kd with HLA-B*27:05 (setting [8]), with HLA-B*40:01 (setting [8]), in the test with HLA-A*11:01 (setting [8]), with HLA-A*02:01 [3] (setting [8]), in the test with HLA-A*31:01 (setting [8]) and with HLA-B*08:02 (setting [8]) was not below 20 µM each time. In addition, in the test with HLA-A*03:01 (setting [8]), the Kd is not below 20 µM.
Turning to REWFMDLNL, the Kd is not below 5 µM with HLA-B*83:01 (setting [9]); not below 5000 nM with HLA-C*04:01 (setting [9]); not below 5 µM with HLA-B*45:06 (setting [9]); not below 5 µM in the test with HLA-B*15:42 (setting [9]); 1.36 µM with HLA-B*18:01 (setting [9]).
Consider SVFQGALFA, for which the Kd in the test with HLA-A*02:12 [4] is 11 µM; with HLA-A*02:01 [1] (source organism: Giardia lamblia ATCC 50803), 1890 nM.
For SPREECGVF, the equilibrium dissociation constant (Kd) in the test with HLA-A*01:01 [5], in the test with HLA-A*26:01, with HLA-B*58:01 (setting [10]), with HLA-A*69:01 (setting [10]), with HLA-B*51:01 (setting [10]) and with HLA-B*48:01 (setting [10]) was not below 20 µM each time. The Kd with HLA-B*46:01 (setting [10]), with HLA-B*15:17 (setting [10]), with HLA-B*57:01 (setting [10]), with HLA-B*27:05 (setting [10]), in the test with HLA-B*40:01 (setting [10]) and in the test with HLA-A*11:01 (setting [10]) was not below 20 µM throughout. The Kd in the test with HLA-A*02:01 [3] (setting [10]) was not below 20 µM; with HLA-B*15:09 it was not below 20 µM; with HLA-B*18:01 (setting [10]) it was not below 20 µM; in the test with HLA-A*31:01 (setting [10]), not below 20 µM; with HLA-B*15:01 (setting [10]) it was 1.2 µM; in the test with HLA-B*08:02 (source organism: Mycobacterium tuberculosis str. Haarlem) it was not below 20 µM. The Kd in the test with HLA-A*03:01 (setting [10]) is not below 20 µM.
Take YFDPANGKF: the dissociation constant (Kd) was 1.5 nM with HLA-C*04:01 (source organism: Rattus norvegicus); 3.6 µM with HLA-A*01:01 [2] (source organism: Homo sapiens); not below 28.4 µM in the test with HLA-A*69:01 (source organism: Homo sapiens); 109 nM in the test with HLA-C*05:01; not below 44.1 µM in the test with HLA-A*11:01 (source organism: Homo sapiens); not below 22.7 µM in the test with HLA-A*02:01 [3] (source organism: Homo sapiens).
For APAKKAAAK, the Kd with HLA-A*26:01, with HLA-A*01:01 [2] (setting [11]), with HLA-A*02:12 [6], with HLA-A*02:11, with HLA-B*58:01 (setting [11]) and with HLA-A*69:01 (setting [11]) was not below 20 µM in each case. Besides, the Kd with HLA-B*51:01 (setting [11]), with HLA-B*48:01 (setting [11]), in the test with HLA-B*46:01 (setting [11]), with HLA-B*15:17 (setting [11]), with HLA-B*57:01 (setting [11]) and with HLA-B*27:05 (setting [11]) was not below 20 µM throughout. Further, the Kd with HLA-B*40:01 (setting [11]), with HLA-A*11:01 (setting [11]), with HLA-A*02:01 [3] (setting [11]), with HLA-B*15:09, with HLA-B*18:01 (setting [11]) and in the test with HLA-A*31:01 (setting [11]) was not below 20 µM in each case. In addition, the Kd with HLA-B*15:01 (setting [11]), with HLA-A*03:01 (setting [11]) and in the test with HLA-B*39:01 was not below 20 µM each time.
